According to US20250332297A1, “DLL3-SPECIFIC BINDING CONSTRUCTS AND THEIR USE IN RADIOTHERAPY” (MOLECULAR PARTNERS AG, priority 2024, published 2025):

Tests used:
Cyno DLL3-ECD = assay: SPR, immobilized DARPin, binding of cyno DLL3-ECD (Example 17); set-up: species or system cynomolgus monkey; conditions: immobilized biotinylated DARPin, DLL3-ECD as analyte, 1:1 Langmuir, Table 19
Experimental: (§1) Kinetic binding parameters and binding affinities of two domain (2D) ankyrin repeat protein MAM279 and single domain (1 D) ankyrin repeat protein MAM093 to DLL3 from different species were determined. The DLL3-specific ankyrin repeat domain of MAM093 is identical to the DLL3-specific ankyrin repeat domain comprised in MAM279.
(§2) SPR multi-trace analyses were performed similarly as described in Examples 1 and 11. Here, the binding kinetics of immobilized DARPin proteins to the extracellular domain of DLL3 (DLL3-ECD) from human, cynomolgus monkey, mouse and pig were determined. Various concentrations of recombinant DLL3-ECD starting from 500 nM were applied to immobilized biotinylated 2D DARPin (MAM279; SEQ ID NO: 11) or 1 D DARPin (MAM093; SEQ ID NO: 1) (both with a Glycine-Serine (GS) at the N-terminal end) for on-rate and off-rate measurements.
(§3) Streptavidin SAHC200M (Xantec) SPR chip was conditioned according to the manufacturer's protocol. Biotinylated DARPins were immobilized to a coating density of 27 resonance units (RU) for 1D DARPin and 25 RU for 2D DARPin. All analytes (3-fold dilution ranging from 500-6.17 nM) were injected in succession for 240 s and dissociation was recorded for 10800 s using a constant flow of 100 μl/min.

mouse DLL3-ECD = molecular target: T1, mouse DLL3-ECD (Mus musculus, UniProt O88516); assay: SPR, immobilized DARPin, binding of mouse DLL3-ECD (Example 17); conditions: immobilized biotinylated DARPin, DLL3-ECD as analyte, 1:1 Langmuir, Table 20
T1 construct: the extracellular domain of DLL3 (DLL3-ECD) from human, cynomolgus monkey, mouse and pig
T1 sequence (O88516 33-490 limits assumed): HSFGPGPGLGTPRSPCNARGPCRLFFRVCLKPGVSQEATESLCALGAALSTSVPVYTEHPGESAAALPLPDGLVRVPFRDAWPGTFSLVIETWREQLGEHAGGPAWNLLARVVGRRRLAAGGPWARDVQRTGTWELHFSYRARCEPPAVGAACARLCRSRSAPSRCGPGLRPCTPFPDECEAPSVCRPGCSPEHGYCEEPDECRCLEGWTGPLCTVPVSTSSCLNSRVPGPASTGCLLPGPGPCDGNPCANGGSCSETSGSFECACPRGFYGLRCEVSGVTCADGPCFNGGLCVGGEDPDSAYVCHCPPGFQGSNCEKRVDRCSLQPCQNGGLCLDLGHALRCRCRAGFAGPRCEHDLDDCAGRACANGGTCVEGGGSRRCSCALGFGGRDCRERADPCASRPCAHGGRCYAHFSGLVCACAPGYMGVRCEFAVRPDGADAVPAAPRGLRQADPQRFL
Experimental: as §1, §2, §3

pig DLL3-ECD = assay: SPR, immobilized DARPin, binding of pig DLL3-ECD (Example 17); conditions: immobilized biotinylated DARPin, DLL3-ECD as analyte, 1:1 Langmuir, Table 20
Experimental: as §1, §2, §3

human serum albumin = human serum albumin (Homo sapiens, UniProt P02768); assay: SPR binding to human serum albumin (Example 18); set-up: purchased CSL; conditions: immobilized HSA, 1:1 Langmuir, Table 21
Experimental: SPR multi-trace analyses were performed similarly as described in previous Examples. The following ankyrin repeat proteins analyzed: (i) MAM279 (SEQ ID NO: 11) (with a Glycine-Serine (GS) at its N-terminal end); and (ii) MAM279 (SEQ ID NO: 11), with a Glycine-Serine (GS) at its N-terminal end and a tag (SEQ ID NO: 10) at its C-terminal end (resulting in GS-MAM279-tag (SEQ ID NO: 15)), conjugated to the chelator DOTAM as described in Example 3.
All analytes (3-fold dilution ranging from 600-7.41 nM) were injected in succession for 240 s and dissociation was recorded for 600 s using a constant flow of 25 μl/min (HSA) or 100 μl/min (MSA) (25 μl/min). […] The obtained SPR traces were used to determine the DARPin-serum albumin interaction parameters, and results are summarized in Table 21.

[1] = molecular target: T2, human DLL3 and human serum albumin (Homo sapiens, UniProt P02768+Q9NYJ7); assay: SPR simultaneous binding to DLL3 and serum albumin; conditions: immobilized hDLL3-ECD, 150 nM conjugate then 1000 nM HSA
T2 construct: Biotinylated recombinant human DLL3-ECD was immobilized
Experimental: Studies were performed to determine whether a two domain (2D) ankyrin repeat protein conjugate, as described herein, can bind simultaneously to DLL3 and serum albumin. The specific conjugate tested was MAM279 (SEQ ID NO: 11), with a Glycine-Serine (GS) at its N-terminal end and a tag (SEQ ID NO: 10) at its C-terminal end (resulting in GS-MAM279-tag (SEQ ID NO: 15)), conjugated to the chelator DOTAM as described in Example 3.
An SPR assay was used to assess the concurrent binding of DARPin (MAM279) conjugate to both human DLL3 and human serum albumin (HSA). […] A streptavidin SAHC200M (Xantec) sensor chip was conditioned according to the manufacturer's protocol. Biotinylated recombinant human DLL3-ECD was immobilized to a coating density of 1350-1470 RU. A single injection of 150 nM DARPin conjugate was performed, with an association time of 240 s using a constant flow of 100 μl/min. After a lag time of ˜300 seconds, HSA was injected at 1000 nM with an association time of 240 seconds and a dissociation time of 900 seconds using a constant flow of 100 μl/min. Control lanes were used where only one of the analytes or only PBST was injected. The signal was double referenced (interspot and buffer injection). The figure (FIG. 17) was prepared with GraphPad Prism 10.2.3.

hDLL3-MC38 tumors = assay: Efficacy (tumor growth) in hDLL3-MC38 tumor model; assay type: in vivo, mouse; conditions: tumor volume in mm^3, hDLL3-MC38
Experimental: To determine the efficacy of radio-labelled (Pb-212) DARPin (MAM160) conjugate in inhibiting the growth of tumors that express DLL3, different dose regimens (single or repeated dose) of the conjugate were tested in a mouse tumor model (hDLL3-MC38).
The first injections were done 7 days after the xenografts. Animals were under observation daily and 3× per week tumors were measured by caliper. Animals were sacrificed when tumors reached 1000 mm^3 or if termination criteria were met. The data were expressed as average+/−SEM of tumor volume in mm^3.

B1: MAM279: Two domain (2D) ankyrin repeat protein: serum albumin-specific domain (SEQ ID NO: 7), PT linker, DLL3-specific domain of MAM093 (protein)
chain: DLGKKLLEAARAGQDDEVRELLKAGADVNAKDYFSHTPLHLAARNGHLKIVEVLLKAGADVNAKDFAGKTPLHLAADAGHLEIVEVLLKAGADVNAQDIFGKTPADIAADAGHEDIAEVLQKAAGSPTPTPTTPTPTPTTPTPTPTGSDLGKKLLAAAAQGQDDEVRELLKAGANVNAKDLFGYTPLHLAAWRGHLEIVEVLLKAGADVNAKDAAGETPLHLAAWFGHLEIVEVLLKAGADVNAQDLQGKTPADLAAKEGHEDIAEVLQKAA
modifications: Ankyrin repeat protein (MAM279)
Cyno DLL3-ECD
  Kd: 8.88 nM
  Koff Cyno DLL3-ECD: 0.000939 s⁻¹
  Kon Cyno DLL3-ECD: 106000 M⁻¹ s⁻¹
Mouse DLL3-ECD
  Kd: 83.9 nM
  Koff mouse DLL3-ECD: 0.00282 s⁻¹
  Kon mouse DLL3-ECD: 33700 M⁻¹ s⁻¹
Pig DLL3-ECD
  Kd: 17.3 nM
  Koff pig DLL3-ECD: 0.000319 s⁻¹
  Kon pig DLL3-ECD: 18400 M⁻¹ s⁻¹
Human serum albumin
  Kd: 75.5 nM
  Koff HSA: 0.0216 s⁻¹
  Kon HSA: 286000 M⁻¹ s⁻¹

B2: MAM279-DOTAM: GS-MAM279-tag (SEQ ID NO: 15) conjugated to the chelator DOTAM via C-terminal tag and maleimide connector, no radionuclide (conjugate)
chain: GSDLGKKLLEAARAGQDDEVRELLKAGADVNAKDYFSHTPLHLAARNGHLKIVEVLLKAGADVNAKDFAGKTPLHLAADAGHLEIVEVLLKAGADVNAQDIFGKTPADIAADAGHEDIAEVLQKAAGSPTPTPTTPTPTPTTPTPTPTGSDLGKKLLAAAAQGQDDEVRELLKAGANVNAKDLFGYTPLHLAAWRGHLEIVEVLLKAGADVNAKDAAGETPLHLAAWFGHLEIVEVLLKAGADVNAQDLQGKTPADLAAKEGHEDIAEVLQKAAGSGSC
modifications: DOTAM chelator via maleimide on C-terminal tag; Ankyrin repeat protein with tag (GS-MAM279-tag)
[1]
  simultaneous binding to DLL3 and serum albumin: can bind simultaneously to human DLL3 and human serum albumin

B3: Rova: Rova antibody, DLL3-binding benchmark antibody used as positive control and comparison (antibody, chains of the INN, looked up, V domains shown)
VH: QVQLVQSGAEVKKPGASVKVSCKASGYTFTNYGMNWVRQAPGQGLEWMGWINTYTGEPTYADDFKGRVTMTTDTSTSTAYMELRSLRSDDTAVYYCARIGDSSPSDYWGQGTLVTVSS
VL: EIVMTQSPATLSVSPGERATLSCKASQSVSNDVVWYQQKPGQAPRLLIYYASNRYTGIPARFSGSGSGTEFTLTISSLQSEDFAVYYCQQDYTSPWTFGQGTKLEIK
hDLL3-MC38 tumors; Dunnett's multiple comparisons test, Buffer vs. 3 × 10μCi (1 week apart)
  Mean Diff.: 251.6
hDLL3-MC38 tumors; Tukey's multiple comparisons test, Buffer vs. 3 × 10μCi
  Mean Diff.: 251.6
